The source of these data is article PMC2703826.

The assay concerns the target C-terminal hydrophilic (cytoplasmic) domain of non-structural protein 4 from mouse hepatitis virus strain A59, wild type (mouse hepatitis virus strain A59). The assay is described as follows: SEC; Superdex75, 50 mM Tris-Cl pH 8.5, 300 mM NaCl (legend: 150 mM NaCl), no reducing agent, 0.5 mL/min; calibrated with marker proteins.

On to “C-terminal hydrophilic (cytoplasmic) domain of non-structural protein 4 from mouse hepatitis virus strain A59, wild type (domain or fragment)”, for which the stoichiometry N was 2.
